This note sets out measurements from the nanobody polyreactivity screen of Harvey et al. (2022).

This data set is described as follows: yeast display, Sf9 membrane polyspecificity reagent, FACS + sequencing; frameworks hold sequencing errors. The method, boiled down:
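After 36–48 hours of galactose induction, yeast (Saccharomyces cerevisiae BJ5465) displaying a synthetic nanobody library were stained at 4 °C for 1 hour with 10% biotinylated, detergent-solubilized Sf9 membrane reagent. Streptavidin microbeads enriched the stained cells before FACS sorting into low and high (top ~1%) gates on anti-HA and streptavidin fluorescence. Each clone's polyreactivity label reflects its gate of origin.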
Take “QVQHEESGGGIVQAGGSLRLSSAASGRTFKYYDMGWFRQALGKERELVATISSSDSTNYADSVKGRFTISRDNAKNTVYLQLNSLKPEDTAVYYCNADFKLIYVFDYWGQGSQVTVSS”: the “polyreactivity (PSR sort gate)” value is on record as “high polyreactivity”.
As to “QVQHEESGGGLFQAGGSLRLICAASGSIFDYYAMGWYRQAPGKERELVSTYYADSVKVRFTISRDNAKNTVYLQLNSLKPEDTAVYFCAKDRGTTGIPDGPAASLYGYVYWGQGTQVTVSS”, the “polyreactivity (PSR sort gate)” value was “low polyreactivity”.
On to “QVQHEESGGGLVQAGGSLRLSCAASGLILFYNDMGWYRQAPGNERELVSVITSGGRTYYADSVKGRFTISRDIAKNTVYLQMNSLKPEDTAVYYCAATYGHPTTYCEGWRYGYWGQGTQVTVSS”, for which the “polyreactivity (PSR sort gate)” value is recorded as “low polyreactivity”.
To “QVQHEESGGGLVQAGGSLRLSCAASGRIFPVNAMGWSRKAPGKERELLAAITRNGGSTYYADSVKGRFTISRDNAKNTVYLQMNSLKPEDTAVSYCAVRVVYGPAWAKMYYWGQGTQVTVSS” belongs “high polyreactivity”; to “QVQHEESGGGLVQAGGSLRLSCAASGSIFRGNAMGWYRQAPGNERELVAAITRSGGRTYYADSVKGRFTISRDNAKNTVYLQMNSLKPEDTAVYYCAADYPYGSPTHFDYWGPGTQVTVSS”, “high polyreactivity”.
To “QVQHEESGGGLVQAGGSLRLSCAASGSIFTPTPKGCYRQAPGKERELVAAISSSSDRTYYADSVKGRFTISRDNAKNTVYLEMNSLKPEDTAVYFCAAYAQKRYYWGQGTQVNVSS” belongs “high polyreactivity”.
As for “QVQHVDSAGGIVQAGGILRLSCAASGPTFGKYAMGWYRQQHGKERELVATITRTARTNYADSVKGRFTSSRDNAKNTVYLQMNSRKPEDTAVYYCDAPWRYTFPPQVYGQSYGYWGQGTQVTVSS”, the “polyreactivity (PSR sort gate)” value was “high polyreactivity”.
Regarding “QVQHVDSGAGLVQAGGSLRLRCSASGLILKDYAMGWSIQPPGKERELVAAISTSAGTTYYADSVKGRFTISRDNAKNTVYLQMKSQKPEETAVYYCAAGYLPYYIRYYHPVTVDYDYWGQGTQVTVSS”, the “polyreactivity (PSR sort gate)” value was “low polyreactivity”.
Under “QVQHVDSGGGLVQAGGSLRLSCAASGSTFSLNAMGWYRQAPGKERELVAAISSGDSTNYADSVKGRFTISRDNAKNTVYLQMNSVKPEDTAVYYCAVEVYYTGFYYSPYAYDYWGQGTQVTVSS” stands “low polyreactivity”; under “QVQHVESARGLVQAGGSLRLSCAASGRTFFSYAMGGYRQAPGKERELVAAITSGGTTYYADSVKGRFTISRDNAKNTVYLQMNSLKPEDTAVYYCAVLGLGQKRGRAFLFPYDYWGQGTQVTVSS”, “high polyreactivity”.
For “QVQHVESCGGLVQAGGSLRLSCAASGFTFASNVMGWYRQAPGKERDLVAAITSGASTNYADSVKGRFTISRDNAKNTFYLQMNSLKPEDTAVYYCAAGRQWYVFYEFDYWGQGTQVTVSS”, the “polyreactivity (PSR sort gate)” value is “high polyreactivity”.
To “QVQHVESCGGLVQAGGSLRLSCADSGRIFGDYVMGWYRQAPGKERELVASIDTSGGSTYDADSVKGGFTISRDIAKNTVYLQMNSVKPEDSAVYYCAAERKYFVFVYYQGWYDYWGQGTQVTVSS” belongs “low polyreactivity”.
To “QVQHVESCGGLVQAGGSLRLSCDASGSTFYYYAMGWSRQGPGKERELVAAISLGGGSTYYADSVKGRFTISRDNAKNTVYLHMNSLKPEDSAVYYCAARRVGGGFYTWRNPAYEYWGQGTQVTVSS” belongs “high polyreactivity”.
To “QVQHVESGAGLVQAGGSLRLSCAASGNTINFYAMGWYRQPPGKESELVASITSGGGTNYADSVKGRFTISRDNAKNTVYLQMNSLKPEDTAVYYCAAQFYDHFRYHFDWGQGTQVTVSS” belongs “low polyreactivity”; to “QVQHVESGGALVQAGGSLRLSCADSGRTFIFYAMGWYRQAPGKETELVASTSSGGSTNYADSVKGRFTISRDNAKNTVYLQMNILKPEDTAVYYCATRQYLYYSRGYGYWGQGTKVTVSS”, “low polyreactivity”; to “QVQHVESGGCLLQAGGSLRLSCAASGSIFEPYTMGWYRQAPGKERELVAAITGSGGSTFYADSVKGRFTISRDNAKNTVYLQMNSLKPEVTALYYCNAYAYPYTDVDYWVQGTQVTVSS”, “low polyreactivity”.
For “QVQHVESGGCLVQAGGSLRLSCAASGRIFRGYAMGWYRQAPGKERELVAAISSRGSTYYADSVKGRFTNSRDNAKNTVYLQMNSLKPEDTAVYYCAKSEYARLSGFRYRTGYNYWGQGTQVTVSS”, the “polyreactivity (PSR sort gate)” value is given as “high polyreactivity”.
In the case of “QVQHVESGGCLVQAGGSRRLSCAASVSIFIPNAMGWSRQAHGKERELVAAISWSGASTYYADSVKRRFTISRDNAKNTVYLQMISLKPEDTAVYYCAAYYAYRRGYDYWGQGTQVTVSS”, the “polyreactivity (PSR sort gate)” value was “high polyreactivity”.
To “QVQHVESGGCLVQAGRSLRLSCAASGRTFFPYGMGWDRQAPAKEREFVATISWSGGSTHYADSVKGRFTISRDNAKYTVYLEMNSLKPEDTAVYFCAAGNSLYWYNSGNYWGQGTQVTVSS” belongs “low polyreactivity”; to “QVQHVESGGGILQAGRSLRLICAASGRLYLSNVMAWNRQAPGTERQLVAAITGRGSSTYYADSVKGRFTISRDNAKNTVYLLINSLKPEDSAVYSCAKRLPYSSGYEYWGQGTQVTVSS”, “high polyreactivity”; to “QVQHVESGGGIVQAGGSLRLSCAASGHIFFYYTMGWYRQAPGKERELVAGITIGGSTNYADSVKGRFTISRDNAKNTVYLQMNSLKPEDTAVYYCNVVKYVYIYSYWEYYYWGQGTQVTVSS”, “low polyreactivity”.
For “QVQHVESGGGIVQAGGSLRLSCAASGITFSRKAMGRYRQATGKERELVATITSGGSTNYADSVKGRFTISRDNAKNTVYLQMNRLKPEDTAVYYCNAVWNTFISGRSYDYWGQGTQVTVSS”, the “polyreactivity (PSR sort gate)” value is recorded as “low polyreactivity”.
Consider “QVQHVESGGGIVQAGGSLRLSCAASGSTFFGNGMGWYRQAPGKERELVAAISGGGSTHYADSVKGRFTSSRDNAKNTVYVQMNSLKPEDTAVYYCSPSRDTVGRGPIQRDYWGQGTQVTVSS”, for which the “polyreactivity (PSR sort gate)” value is on record as “low polyreactivity”.
Under “QVQHVESGGGLDQAGGSLRLSCAASGRIYCTNAMGWYRQAPGKESELVADITSGGSTNYADSVKGRFSISRDNAKNTVYLQMTSLKPEDTAVYYCAADVIGDLRWYRDEYWGQGTQVTVAS” stands “low polyreactivity”; under “QVQHVESGGGLDQAGGSLRLSCAASGRTFAPYAMGWYRQAPGKEREFVAGITWSSSSTYADSVKGRFTISRDNAKNTVYVQMNSLKPDDPAVYYCAARHAKGGNRHYYWGQGTQVTVSS”, “high polyreactivity”; under “QVQHVESGGGLDQGRGSLSLSCAASARNLSSNVLGRYRQAPGNETEFVASITYSGSSTYYADSVKGRFTISRDYAKNTFYLQMNSLKPEDTAVYYCATRYGYSDGDYWGQGTQVTVSS”, “low polyreactivity”.
Take “QVQHVESGGGLGQAGGSLRLSCAASGRTFDGNVKGWYIQAPGKERELVAAMTASGARTYYADSVKRRFTISRDNAKNTVYLQMNSLKPEDTAVYYCAAVCRRVSAWYYYWGQGTQVTVSS”: the “polyreactivity (PSR sort gate)” value is “high polyreactivity”.
For the sequence “QVQHVESGGGLLQAGGSLRLSCAASGMGWYRQAPGKERELVAVIRWSSGSTYYADSVKGRFTISRDNAKNTVYLQMNSLKPDDTAVYYCNARDQYYGDPSSQPDTRSRSDYWGQGTQVTVSS”, the “polyreactivity (PSR sort gate)” value was “low polyreactivity”.
To “QVQHVESGGGLVLAGGSLRLSCAASGRTFAYNAMGWYRQAPGKERELVAAISRSGGSTYYADSVKGRFTISRDNPKNTVYLQMYSLKPEDTAVYYSNKVTHSYVYFAAGDYWGQGTQVTVSS” belongs “high polyreactivity”; to “QVQHVESGGGLVQAGASLRLSCAASGTTFIGYERGRSRQAPGKVRELVAAISYSDGTYYADSVKGRFTISRENAKNTVYLQMNSLKPEDTAVYYCAADSLFYRYDYWGQGTQVTVSS”, “low polyreactivity”.
To “QVQHVESGGGLVQAGCSLRLSCAASGSIFVIYAMGWYRQAPGKERELVAAIRSTGSSNYADSVKGRFTISRDNAKNTVYLQMNSLKPEDTAVYYCAAYRRRTYAVNIEGGYWGQGTQVTVSS” belongs “high polyreactivity”.
For the sequence “QVQHVESGGGLVQAGGGLRISCAASGSIFHVNAMGWSRLAPGKERELVAGISDGGSTYYADSVKGRFTFSRDTAKHTVYLQLNSLKPEDTAVYYSGAECEQWYSYVLSYDWEYDYWGQGTQVTVSS”, the “polyreactivity (PSR sort gate)” value is reported as “low polyreactivity”.
As to “QVQHVESGGGLVQAGGRLRLSCAASGSIFYSNAIGWYRQAPGKEWELVATITWSGGRTYYADSVKGRFTISRDNAKNTVYLQMNSLKPEDTAVYYCAAVSIYWGQGTQVTVSS”, the “polyreactivity (PSR sort gate)” value is “low polyreactivity”.
To “QVQHVESGGGLVQAGGSHRLSCAASGRIFTQNSMGWYRQAPGKERELVAAINATDGSTYADSVKGRFTISRDNAKNTVYLQMKSLKREDTSVYYCYFTGGPYDFTRWSEFDHWGQGTQVTVSS” belongs “low polyreactivity”.
On to “QVQHVESGGGLVQAGGSHRLSCAASGSTFGSNDMRWYRQSPGKERQLVAAIRGIVGSTYYADSVKGRFTISRDHAKNTVYLQMNSLKPEDTAVYYCNKAEVSTYYQSSSTYGGYDYWGQGTQVTVSS”, for which the “polyreactivity (PSR sort gate)” value was “low polyreactivity”.
To “QVQHVESGGGLVQAGGSIRLSGAASGRIILGYDMGWYRQPPGKDRELVAAINSVASTNYADSVKGRFTISRDNAKNTVYLQMNSLKPEDTAVYYCAAVYFLVEADLPAYDYWGQGTQVTVSS” belongs “low polyreactivity”; to “QVQHVESGGGLVQAGGSLRISCAASGSILDGYAMGWYRQAPGKEREFVAAITWSGGRTYYADSVKGRFTISRDNAMNTVYLQMNSLKPEDTAVYYCIAVTGSWRYDFWGQGSQVTVSS”, “high polyreactivity”.
To “QVQHVESGGGLVQAGGSLRISSAASGYIFDKYAMGRYRQAPGKERELVAAITYSGGSTYYADSVKGRFTISRDNAKNTVYLQMNSLIAEDTAVNYCAPEVRRSTLEFGYWRQGTQVTVSS” belongs “high polyreactivity”.
To “QVQHVESGGGLVQAGGSLRLICAASGLTFPYYAMGWYRQDAGKVSELVAAITWSGGTTDYADSVKGRFTISRDNAKNTVYFKMITLKPEDTAVYFCAARVLWKGYYWGQGTQVTVSS” belongs “low polyreactivity”.
For “QVQHVESGGGLVQAGGSLRLICAASGSTFGNYAMGWYRQAPGKERELVAAISTSGGSTYYADSVKGRFTISRDNAKNTVYLQMNSLKPEDTAVYYCANRLVRGRSRAVSDYYWGQGTQVTVSS”, the “polyreactivity (PSR sort gate)” value is reported as “high polyreactivity”.
